This note sets out measurements from publication PMC533864, “Selective inhibition of c-Myb DNA-binding by RNA polymers”.

In one series the target is c-Myb R2R3 (Homo sapiens, UniProt P10242 89-192). Put plainly: EMSA; 20 mM Tris-HCl pH 8.0, 0.1 mM EDTA, 10% glycerol, 0.1 mM DTT, 0.005% Triton X-100, 50 mM NaCl, RNAguard 6-20 U, 20 uL, 25 C, 15 min. The note with it: protein: recombinant; label: 32P.
A further series deals with c-Myb NR1R2R3 (Homo sapiens, UniProt P10242 1-192). The series is described as above. The settings on record: protein: recombinant; label: 32P.
Chain of c-Myb NR1R2R3 (P10242 1-192): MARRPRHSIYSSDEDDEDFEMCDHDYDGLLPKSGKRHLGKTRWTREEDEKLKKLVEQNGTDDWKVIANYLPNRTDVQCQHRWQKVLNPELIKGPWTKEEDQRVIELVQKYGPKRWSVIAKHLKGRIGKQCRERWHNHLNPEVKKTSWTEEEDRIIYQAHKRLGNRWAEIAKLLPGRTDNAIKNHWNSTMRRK

Chain of c-Myb R2R3 (P10242 89-192): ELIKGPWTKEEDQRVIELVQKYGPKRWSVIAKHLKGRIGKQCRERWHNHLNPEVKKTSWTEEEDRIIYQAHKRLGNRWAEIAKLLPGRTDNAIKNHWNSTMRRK

B1: MRE probe (mim-1 promoter) (dsDNA)
DNA 1: GCATTATAACGGTTTTTTAGCGC
DNA 2: GCGCTAAAAAACCGTTATAATGC
Regarding B1, the binding result with c-Myb R2R3 and with c-Myb NR1R2R3 was “binds” throughout.
